How the values were obtained:
[1] = biological target: T1, LexA-MB67 (bacterial, UniProt P0A7C2 1-202; Q14994 76-348, limits assumed); experiment: yeast interaction trap, X-gal plate; W = white (no interaction)
T1 construct: Made by PCR, 'analogous' to LexA-RXR and LexA-TR; also called Lex fusion MB67
T1 sequence (looked up): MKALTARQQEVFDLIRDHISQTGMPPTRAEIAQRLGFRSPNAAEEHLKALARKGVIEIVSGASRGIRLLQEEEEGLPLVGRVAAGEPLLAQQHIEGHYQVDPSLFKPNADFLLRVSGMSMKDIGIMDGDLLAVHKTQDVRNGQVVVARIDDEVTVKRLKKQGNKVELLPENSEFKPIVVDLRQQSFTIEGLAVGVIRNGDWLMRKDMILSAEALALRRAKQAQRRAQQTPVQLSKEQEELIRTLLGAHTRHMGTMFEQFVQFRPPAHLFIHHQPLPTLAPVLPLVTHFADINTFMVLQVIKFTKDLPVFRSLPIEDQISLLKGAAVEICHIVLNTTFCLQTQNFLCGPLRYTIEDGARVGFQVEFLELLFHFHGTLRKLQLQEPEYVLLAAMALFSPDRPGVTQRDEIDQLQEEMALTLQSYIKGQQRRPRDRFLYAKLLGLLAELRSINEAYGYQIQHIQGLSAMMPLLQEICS
Description: (§1) Interactions of the RIP clones with other superfamily members, including RAR, TR, the glucocorticoid receptor (GR), and MB67, an orphan isolated in this lab (Baes et al., Mol. Cell. Biol. 14:1544–1552, 1994) were also tested using a series of appropriate LexA fusions. In particular, the experiments shown in Table 1 were carried out as follows. Yeast transformants containing a lacZ reporter gene under the control of LexA binding sites and the indicated B42- and Lex-fusion protein expression vectors were transferred onto galactose-Ura⁻His⁻Trp⁻ plates containing X-gal and incubated for two days. Relative levels of β-galactosidase activity were estimated and are depicted as follows: B, blue (strong interaction); LB, light blue (weak interaction); W, white (no interaction); nt, not tested. At least three separate colonies were tested on the same plate for interaction. To test the effects of ligands, 100 µl of a 10^-6M solution of the appropriate ligand was spread onto plates just before inoculation of cells (9-cis-RA for RXR, T3 for TR, and all-trans-RA for RAR). For B42-PPAR, the plasmid isolated from the screening was used. Both full length and truncated RAR fusions to LexA were tested with identical results for all the B42 fusions except B42-110, which was tested only with the full length fusion.

[2] = biological target: T2, LexA-TR (bacterial; rat, UniProt P0A7C2 1-202; P18113 170-461, limits assumed); experiment: yeast interaction trap, X-gal plate, with T3; W = white (no interaction)
T2 construct: also called Lex fusion TR
T2 sequence (looked up): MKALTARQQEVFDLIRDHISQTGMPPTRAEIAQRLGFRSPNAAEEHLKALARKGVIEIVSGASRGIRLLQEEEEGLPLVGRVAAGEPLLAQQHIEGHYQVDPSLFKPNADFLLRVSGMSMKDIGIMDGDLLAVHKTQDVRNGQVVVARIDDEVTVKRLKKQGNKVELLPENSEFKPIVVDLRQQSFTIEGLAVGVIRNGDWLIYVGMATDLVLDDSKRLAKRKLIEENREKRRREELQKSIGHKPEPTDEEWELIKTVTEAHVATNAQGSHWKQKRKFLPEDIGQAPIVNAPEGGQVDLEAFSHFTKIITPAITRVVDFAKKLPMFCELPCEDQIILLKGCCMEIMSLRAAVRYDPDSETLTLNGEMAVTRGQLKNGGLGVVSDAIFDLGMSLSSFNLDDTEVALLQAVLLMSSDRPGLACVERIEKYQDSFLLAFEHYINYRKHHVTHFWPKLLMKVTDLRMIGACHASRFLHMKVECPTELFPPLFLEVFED
Description: as §1

[3] = biological target: T3, LexA-RXR (bacterial; human, UniProt P0A7C2 1-202; P19793 196-462, limits assumed); experiment: yeast interaction trap screen; clones showing specific interaction with LexA-RXR; all six clones start at amino acid 132
T3 construct: also called Lex fusion RXR
T3 sequence (looked up): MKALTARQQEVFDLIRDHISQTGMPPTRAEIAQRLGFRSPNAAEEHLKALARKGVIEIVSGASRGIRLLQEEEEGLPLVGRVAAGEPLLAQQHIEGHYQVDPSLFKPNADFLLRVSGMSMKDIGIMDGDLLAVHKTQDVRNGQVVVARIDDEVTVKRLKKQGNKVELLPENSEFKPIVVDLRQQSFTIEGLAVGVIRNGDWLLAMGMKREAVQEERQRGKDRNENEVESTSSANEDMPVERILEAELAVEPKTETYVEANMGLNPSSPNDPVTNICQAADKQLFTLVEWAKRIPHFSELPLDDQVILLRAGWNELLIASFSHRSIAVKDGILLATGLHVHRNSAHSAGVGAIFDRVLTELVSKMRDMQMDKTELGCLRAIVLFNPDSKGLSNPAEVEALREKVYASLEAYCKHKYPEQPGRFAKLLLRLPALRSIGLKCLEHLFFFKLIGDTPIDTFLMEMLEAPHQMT
Description: (§2) From 3×10^6 primary yeast transformants, a number of β-gal expressing colonies were identified in two independent screens carried out in the presence or absence of 9-cis-RA. Since expression of the B42-cDNA fusion proteins was induced by growth on galactose, candidates obtained from each condition were tested for galactose-dependent expression of both β-gal and LEU2, in the presence or absence of 9-cis-RA, using appropriate indicator plates (see below).
(§3) Candidates showing specific interaction with LexA-RXR were sequenced across the B42 fusion junction using an appropriate vector primer, and additional sequence was determined. The deduced amino acid sequences were compared to those in the GenBank and EMBL databases using the GCG (Devereux et al., Nucleic Acids Res. 12:387–395, 1984) and BLAST programs (Altschul et al., J. Mol. Biol. 215:403–410, 1990). […] All of these clones included intact ligand binding domains, as expected from the fact that the major heterodimerization function lies within that domain. For PPAR (Issemann et al., Nature 347:645–650, 1990), three clones started at amino acid 84, just N-terminal to the DNA binding (C) domain, four others started at 91, within the C domain, and one at 170, just past the C domain. For RAR (Leroy et al., EMBO J. 10:59–69), all six clones started at amino acid 132, within the C domain.

[4] = biological target: T3, LexA-RXR; experiment: yeast interaction trap screen; clones showing specific interaction with LexA-RXR; one clone starting at amino acid 170
Description: as §2, §3

[5] = biological target: T4, Human RXRα protein (human, UniProt P19793 1-462, limits assumed); experiment: gel shift of in vitro translated RIP with E. coli-expressed RXRα on labeled βRARE; the complex with RXR is seen on DNA
T4 construct: Used in the gel shifts
T4 sequence (looked up): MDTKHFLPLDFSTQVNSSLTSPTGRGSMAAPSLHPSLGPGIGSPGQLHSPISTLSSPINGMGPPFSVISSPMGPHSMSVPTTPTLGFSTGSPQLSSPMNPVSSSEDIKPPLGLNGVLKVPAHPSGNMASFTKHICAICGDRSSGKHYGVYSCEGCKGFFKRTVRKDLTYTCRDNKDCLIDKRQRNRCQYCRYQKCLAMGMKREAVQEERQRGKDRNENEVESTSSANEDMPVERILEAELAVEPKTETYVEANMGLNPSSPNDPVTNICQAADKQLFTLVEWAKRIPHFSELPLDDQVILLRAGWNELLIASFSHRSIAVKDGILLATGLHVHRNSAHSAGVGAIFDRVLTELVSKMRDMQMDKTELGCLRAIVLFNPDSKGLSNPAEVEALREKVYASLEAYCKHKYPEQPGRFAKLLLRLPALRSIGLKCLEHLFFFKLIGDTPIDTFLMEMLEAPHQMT
Description: The binding of the RIP14-2 isoform to this element was weaker than that of RIP14-1 when similar amounts of RIP14 proteins were used. […] Several other DNA elements were tested in the gel shift assay, including the retinoic acid response element from the promoter of the human RARβ2 isoform (βRARE) (de The et al., Nature 343:177–180, 1990). In the presence of RXR, the βRARE was bound by both the RIP14 isoforms and RIP15 (FIG. 8, panel B). Again, the binding of the RIP14-2/RXR heterodimer was weaker than the RIP14-1/RXR heterodimer when a similar amount of RIP14 proteins were used (FIG. 8, panel B, lanes 10 and 14).
RIP14 and RIP15 proteins were produced by in vitro translation (Promega TNT, Madison, Wis.) using expression vectors containing the RIP genes following a T7 promoter. To generate full length RIP14-2 constructs, fragments from RIP14-1 clone No. 15 containing regions from the middle of the E domain to the 3' end replaced the corresponding regions of RIP14-2 Clones No. 3 or 12, respectively. Sequences were confirmed by DNA sequencing. Human RXRα protein was expressed in E. coli using a bacterial expression vector based on the bacteriophage T7 promoter (Carter et al., Mol. Cell. Biol. in press., 1994). […]

B1: B42-RIP15 (other, not shown: large carriers)
chain: EEQIRKKRIQKQQQQQPPPPSEPAASSSGRPAASPGTSEASSQGSGEGEGIQLTAAQELMIQQLVAAQLQCNKRSFSDQPKVTPWPLGADPQSRDARQQRFAHFTELAIISVQEIVDFAKQVPGFLQLGREDQIALLKASTIEIMLLQTARRYNHETECITFLKDFTYSKDDFHRAGLQVEFINPIFEFSRAMRRLGLDDAEYALLIAINIFSADRPNVQEPSRVEALQQPYVEALLSYTRIKRPQDQLRFPRMLMKLVSLRTLSSVHSEQVFALRLQDKKLPPLLSEIWDVHE
notes: Original yeast clone; Its B42 fusion junction is near the beginning of the hinge (D) domain, with no residue number stated; also called B42 fusion 15; RIP15 chimera
binding result [1]: no binding | binding result [2]: no binding

B2: B42-RAR (other, mouse, UniProt P11416 132-462, looked up, not shown: large carriers)
chain: INKVTRNRCQYCRLQKCFDVGMSKESVRNDRNKKKKEAPKPECSESYTLTPEVGELIEKVRKAHQETFPALCQLGKYTTNNSSEQRVSLDIDLWDKFSELSTKCIIKTVEFAKQLPGFTTLTIADQITLLKAACLDILILRICTRYTPEQDTMTFSDGLTLNRTQMHNAGFGPLTDLVFAFANQLLPLEMDDAETGLLSAICLICGDRQDLEQPDKVDMLQEPLLEALKVYVRKRRPSRPHMFPKMLMKITDLRSISAKGAERVITLKMEIPGSMPPLIQEMLENSEGLDTLSGQSGGGTRDGGGLAPPPGSCSPSLSPSSHRSSPATQSP
notes: range 132-C-terminus; All six isolated clones start at amino acid 132; also called RARα (six clones)
binding result [3]: binds

B3: B42-PPAR clone starting at amino acid 170 (other, mouse, UniProt P23204 170-468, looked up, not shown: large carriers)
chain: AIRFGRMPRSEKAKLKAEILTCEHDLKDSETADLKSLGKRIHEAYLKNFNMNKVKARVILAGKTSNNPPFVIHDMETLCMAEKTLVAKMVANGVEDKEAEVRFFHCCQCMSVETVTELTEFAKAIPGFANLDLNDQVTLLKYGVYEAIFTMLSSLMNKDGMLIAYGNGFITREFLKNLRKPFCDIMEPKFDFAMKFNALELDDSDISLFVAAIICCGDRPGLLNIGYIEKLQEGIVHVLKLHLQSNHPDDTFLFPKLLQKMVDLRQLVTEHAQLVQVIKKTESDAALHPLLQEIYRDMY
notes: range 170-C-terminus; Only the start is stated; also called PPAR (one clone)
binding result [4]: binds

B4: RIP15 (receptor)
chain: MSSPTSSLDTPVPGNGSPQPSTSATSPTIKEEGQETDPPPGSEGSSSAYIVVILEPEDEPERKRKKGPAPKMLGHELCRVCGDKASGFHYNVLSCEGCKGFFRRSVVHGGAGRYACRGSGTCQMDAFMRRKCQLCRLRKCKEAGMREQCVLSEEQIRKKRIQKQQQQQPPPPSEPAASSSGRPAASPGTSEASSQGSGEGEGIQLTAAQELMIQQLVAAQLQCNKRSFSDQPKVTPWPLGADPQSRDARQQRFAHFTELAIISVQEIVDFAKQVPGFLQLGREDQIALLKASTIEIMLLQTARRYNHETECITFLKDFTYSKDDFHRAGLQVEFINPIFEFSRAMRRLGLDDAEYALLIAINIFSADRPNVQEPSRVEALQQPYVEALLSYTRIKRPQDQLRFPRMLMKLVSLRTLSSVHSEQVFALRLQDKKLPPLLSEIWDVHE
notes: Intact 446 amino acid protein; It was translated in vitro for gel shifts and expressed from a CDM vector in HepG2 cells
binding result [5]: binds
